The source of these data is paper PMC7049163 (Proceedings of the National Academy of Sciences of the …, 2020).

What is called stoichiometry N is a count of units in the complex or per binding partner.

This data set deals with the molecule itself. As to the kind of experiment: crystal structure.

B1: copper-containing nitrite reductase from Geobacillus thermodenitrificans (enzyme)
chain: ESKNKTAATQQSEPNVIAAHKGVNQAPVPLKMERVGPHDVHIEMTAQITDIEIDKGKIYKAWTFNGQAPGPLVVVNEGDTIHFTLKNMDPVVPHSMDFHAVHASPSKDFIDVMPNKSGTFTYPANKPGVFMYHCGTKPVLQHIANGMHGVIIVKPKNGYPTDKEVDREYVLIQNEWYKYNDMNDFQNGVPSYVVFSSKALKPGDPNTNGDTFTLKEKPLLAKVGEKIRLYINNVGPNEVSSFHVVGTVFDDVYLDGNPNNHLQGMQTVMLPASGGAVVEFTVTRPGTYPIVTHQFNHAQKGAVAMLKVTETGEDDGTETSGH
Regarding B1, the “stoichiometry N” value amounted to 3.
